Assay results as given in PMC4532613 (Molecular and biochemical parasitology, 2015).

Target: the molecule itself
Assay: SEC

B1: Ca^2+-binding mutant FCaBP^E151Q/E188Q, recombinant (natural protein)
chain: MGACGSKGSTSDKGLASDKDGKKAKDRKEAWERIRQAIPREKTAEAKQRRIELFKKFDKNETGKLCYDEVHSGCLEVLKLDEFTPRVRDITKRAFDKARALGSKLENKGSEDFVEFLEFRLMLCYIYDFFELTVMFDEIDASGNMLVDEEQLKRAVPKLEAWGAKVEDPAALFKELDKNGTGSVTFDQFAAWASAVKLDADGDPDNVPESA
stoichiometry N: 2
